According to patent publication US8722622B2, “FGF21 conjugates and anti-diabetic uses thereof” (COVX Technologies Ireland, Limited, priority 2010, dated 2014):

Legend:
[1] = test system: DIO mice; test: Mouse efficacy in high-fat diet-induced obese (DIO) mice; type: in vivo; settings: day 10, 1 mg/kg QD
Procedure: The efficacy of FGF21 antibodies conjugates was evaluated in two murine obese insulin resistant models—ob/ob mice and high-fat diet-induced obese mice. For both models, male mice (6-8 weeks of age for ob/ob, 12-14 weeks of age for DIO with high-fat diet initiated at 6 weeks of age) were housed 2-4/cage and FGF21 antibody conjugates were administered by SC injection. Body weight was measured daily in the morning. Glucose tolerance was assessed by oral glucose tolerance test. Briefly, mice were fasted for 4-5 hrs in the morning of the day of testing. A basal blood sample was obtained and blood glucose levels were determined using a portable glucometer. Following basal sample, glucose was administered by oral gavage, and blood samples were drawn from 15 to 120 mins thereafter.
For […] expression, frozen visceral WAT samples collected from the in vivo efficacy studies were homogenized. Total RNA was extracted from the tissue homogenates, and Glut1 and GAPDH mRNA expression was measured using a Quantitect Probe RT-PCR kit and running a quantitative real time PCR reaction in a Taqman machine (Applied Biosystems). The effect of treatment was determined by a fold change in Glut1 mRNA levels normalized by the GAPDH mRNA levels from each sample.

[2] = parameters: species or system Swiss-Webster mice; settings: mouse, in vivo
Procedure: The PK of FGF21 antibody conjugates were examined in mice after IV or SC administration. […] Antibody conjugates concentrations in serum were determined using an ELISA which captured the FGF21 portion of the antibody conjugates through a monoclonal anti-hFGF21 antibody bound to a 96-well plate. FGF21 antibody conjugates bound to the plate were detected through an anti-hFc monoclonal antibody, and concentrations were determined using a standard curve of the PK dosing solution diluted into serum-containing assay buffer. SC bioavailability was calculated as the ratio of the area-under the curve (AUC) of the SC serum concentration profile divided by the AUC of the IV serum concentration profile.

B1: FGF21ΔH: FGF21 with H1 absent (ΔH1), L146, SEQ ID NO:2; control protein (protein, listed as Homo sapiens)
chain: PIPDSSPLLQFGGQVRQRYLYTDDAQQTEAHLEIREDGTVGGAADQSPESLLQLKALKPGVIQILGVKTSRFLCQRPDGALYGSLHFDPEACSFRELLLEDGYNVYQSEAHGLPLHLPGNKSPHRDPAPRGPARFLPLPGLPPAPLEPPGILAPQPPDVGSSDPLSMVGPSQGRSPSYAS
[1]
  Body weight change from day −1: −1.6
  Glucose AUC during OGTT: 75
  Mean values of serum lipids NEFA: 0.40 mM
  Mean values of serum lipids TG: 92 mg/dL
  UCP1 mRNA expression in WAT: 1.38
[2]; iv
  IV T1/2: 24 min
[2]; sc
  % SC BioAv: 96%
  SC T1/2: 30 min
